Where “and” joins values, the source holds several entries; their conditions need not be identical. Equal values may be shown once. Read-outs that look alike come from different tables or passages of the source.
Columns and labels:
[1] = system: SCID mice bearing GIST-882 tumors (GRPR expressing); assay: Biodistribution of [^177Lu]Lu-NeoB by organ sampling and gamma counting; assay type: in vivo
Method: (§1) All procedures were performed in accordance with the institutional guidelines and approved by the animal care and use committee of Grenoble University (APAFIS#6544-2016082615349282 v8). The study was performed on 6-weeks old male SCID mice (Charles River). A total of 82 mice were used, 42 for the biodistribution sub-study and 40 for the therapy sub-study. Mice were subcutaneously inoculated into the left flank with GIST-882 (2 to 4 × 10^6) in a 1:1 PBS/Matrigel® (Corning, Corning, NY, USA) mixture.
(§2) Biodistribution of [^177Lu]Lu-NeoB was evaluated when the tumor volume reached ~200 mm^3. The biodistribution was evaluated at 7 time points (1 h, 4 h, 4 h + block, 24 h, 48 h, 96 h, and 168 h). The compound was injected intravenously (100 µL/200 pmol/~0.8 MBq per mice). Moreover, an excess of 40 nmol unlabeled NeoB was co-injected in the mice of the 4 h + block condition. At the selected time point, mice were euthanized by CO2 inhalation, and the main organs and fluids were sampled and weighed. The activity was determined using a gamma well counter (Wizard^2 PerkinElmer, Waltham, MA, USA), the results were corrected for background, decay and sample weight, and the data were expressed as a % ID/g (percentage of injected dose per gram of tissue).

[2] = as above; assay type: in vivo, mice; settings: male, mouse, iv, total radioactivity
Method: as §1, §2

[3] = Stability of the radiolabeled preparation by radio-HPLC (RCP); assay type: physicochemical; settings: 24 h after labeling; Symmetry C18, H2O/acetonitrile 0.1% TFA gradient
Method: ^177Lu^3+ in aqueous 0.04 M HCl solution was purchased from ITG (Garding, Germany). Chemicals for radiolabeling were of trace metal® grade. Radiochemical purity (RCP) of each radiolabeled solution was determined using a high performance liquid chromatography (HPLC) apparatus (Shimadzu, France) equipped with NaI (Tl) scintillation detectors (LabLogic, UK). The radiolabeling was performed as previously described (25). For the biodistribution sub study, 92 nmol of NeoB was radiolabeled with 370 MBq of ^177LuCl3 and the reaction was then incubated at 95 °C for 7 min. The concentration was then adjusted at 200 pmol/100 µL (0.8 MBq) and a sterilizing filtration was performed. A similar protocol was employed for the therapy sub-study, using 20 nmol of NeoB and 1850 MBq of Lu-177. The concentration was then adjusted at 400 pmol/100 µL (37 MBq). A second solution of 800 pmol per 100 µL (37 MBq) was obtained by the addition of unlabeled NeoB peptide. A 0.22 µm sterile filtration was then performed. Radiochemical purity (RCP) was determined immediately after labeling and at 24 h by radio-HPLC analysis using an analytical reverse-phase column (Symmetry C18, 5 μm, 150 × 4.6 mm). A gradient elution was performed using solvent A (H2O, 0.1% TFA) and solvent B (acetonitrile, 0.1% TFA) as mobile phase at a flow rate of 1 mL/min.

[4] = SPECT-CT quantification of tumor uptake; assay type: in vivo, mice; settings: male, SCID, mouse, GIST-882 tumor, iv, total radioactivity, 37 MBq i.v., 24 h post injection, n = 3
Method: Dual single photon emission computed tomography and x-ray computed tomography (SPECT-CT) imaging were performed in a subset of 6 mice of the therapeutic efficacy sub-study (3 from 400 pmol group and 3 from 800 pmol group). Acquisitions were performed the day after [^177Lu]Lu-NeoB injection (24 h post injection). SPECT-CT acquisitions were performed using a dedicated camera (nanoscan SPECT/CT, Mediso, Budapest, Hungary). Animals were placed on a pathogen-free animal handling system (MulticellTM, Mediso, Budapest, Hungary) under gas anesthesia (isoflurane 1–2%). Whole body imaging was performed. SPECT duration was of approximately 35 min, and CT acquisition of 5 min (at 35 kvp). Acquisitions were reconstructed with Nucline software using Monte Carlo reconstruction and scatter and attenuation correction, corrected for decay and expressed as % injected dose per gram (% ID/g). Image analysis was performed using Vivoquant software (version 3.5, Invicro, Boston, MA, USA).

GIST-882 tumor = assay: Therapeutic efficacy (tumor growth, survival without reaching limit tumor volume); assay type: in vivo, mice; settings: for mice excluded due to tumor volume over the limit of 1500 mm^3: 100 days of follow-up, 5 out of 13 control mice reached the limit; for tumor volume in comparison to control group: 37 MBq i.v. once a week for 3 weeks, day 0-26
Method: as §1
(§3) Efficacy was evaluated on 40 mice when the tumor volume reached ~100 mm^3. Control mice were intravenously injected with saline (Control group, n = 13), whereas treated mice received either 400 pmol (400 pmol group, n = 13) or 800 pmol (800 pmol group, n = […]) of 37 MBq of [^177Lu]Lu-NeoB once a week for 3 weeks. Tumor size was recorded 3 times per week before and after therapy administration and 5 times per week during the 3 weeks of the therapy administration. When a tumor volume exceeding 1500 mm^3 the animal was removed from the study and euthanized by CO2 inhalation. Pancreas was then frozen, 10 µm-thick slices were stained using hemato-eosin saffron (HES) and subsequently analyzed by a histopathologist.

[5] = Tolerability in the efficacy sub-study (body weight, pancreas histology HES); assay type: in vivo, mice; settings: 400 or 800 pmol, 37 MBq once a week for 3 weeks
Method: as §3

PC-3 bearing mice = settings: cited from earlier work
Description: In this study, we evaluate for the first time the theragnostic potential of [^177Lu]Lu-NeoB for tumor treatment by performing biodistribution and therapeutic studies in mice bearing GIST. In accordance with above mentioned finding, injected mass ranging from 200 to 800 pmol were employed. […] Indeed, in PC-3 be ...

[6] = from time activity curve 1-168 h, 200 pmol i.v.

In the case of `CC(C)CC(CC(C)C)NC(=O)[C@H](Cc1cnc[nH]1)NC(=O)CNC(=O)[C@@H](NC(=O)[C@H](C)NC(=O)[C@H](Cc1c[nH]c2ccccc12)NC(=O)[C@H](CCC(N)=O)NC(=O)[C@@H](Cc1ccccc1)NC(=O)COCC(=O)Nc1ccc(CNC(=O)CN2CCN(CC(=O)O)CCN(CC(=O)O)CCN(CC(=O)O)CC2)cc1)C(C)C` [[^177Lu]Lu-NeoB, metal not drawn], the “uptake in GIST tumor” value ([1]; 4 h pi, 200 pmol/~0.8 MBq i.v., mean ± SD) is reported as 19.1 ± 3.9 % ID/g, the “decrease of uptake in GIST tumor by co-injection of unlabeled NeoB” value ([1]; 4 h pi, 40 nmol unlabeled NeoB) is reported as over 98% and the “uptake in GIST tumor, 4 h + block” value ([1]; 4 h pi, co-injected with excess of 40 nmol unlabeled NeoB, mean ± SD) is reported as 0.3 ± 0.1 % ID/g. The “uptake in adrenals, blood, GIST tumor, large and small bowel, pancreas and stomach when co-injected with excess unlabeled NeoB” value ([1]; 4 h pi, p < 0.05, multiple t tests, Holm-Sidak) was “significantly reduced”, the “tumor-to-pancreas ratio (maximum value)” value ([1]; at 168 h (1 week), mean ± SD) was over 300 and the half-life in pancreas [1, 6] was 2.41 h and 2.4 h. The “half-life of retention in GIST tumor” value [1, 6] was 40.19 h and 40 h, the tissue uptake at 1 h ([2]; SCID, GIST-882 tumor, 200 pmol/mouse, 1 h pi, 200 pmol/~0.8 MBq i.v., mean ± SD, read-out: uptake in GIST-882 tumor) was 21.6 ± 1.7 %ID/g and the tissue uptake at 4 h ([2]; SCID, GIST-882 tumor, 200 pmol/mouse, 4 h pi, 200 pmol/~0.8 MBq i.v., mean ± SD, read-out: uptake in GIST tumor) was 19.1 ± 3.9 %ID/g. It also gave a tissue uptake at 24 h ([2]; SCID, GIST-882 tumor, 200 pmol/mouse, 24 h pi, 200 pmol i.v., mean ± SD) of 13.4 ± 3.5 %ID/g, a tissue uptake at 48 h ([2]; SCID, GIST-882 tumor, 200 pmol/mouse, 48 h pi, 200 pmol i.v., mean ± SD) of 10.5 ± 1.6 %ID/g and a tissue uptake at 96 h ([2]; SCID, GIST-882 tumor, 200 pmol/mouse, 96 h pi, 200 pmol i.v., mean ± SD) of 5.9 ± 0.3 %ID/g. It also gave a tissue uptake at 168 h ([2]; SCID, GIST-882 tumor, 200 pmol/mouse, 168 h pi, 200 pmol i.v., mean ± SD) of 2.5 ± 0.7 %ID/g, a tissue uptake at 4 h ([2]; SCID, GIST-882 tumor, 4 h pi, co-injected with excess of 40 nmol unlabeled NeoB, mean ± SD, read-out: uptake in GIST tumor, 4 h + block) of 0.3 ± 0.1 %ID/g and a tissue uptake at 1 h ([2]; SCID, bladder, 200 pmol/mouse, 1 h pi, 200 pmol/~0.8 MBq i.v., mean ± SD, read-out: uptake in bladder) of 20.6 ± 19.7 %ID/g. For the same molecule, the tissue uptake at 4 h ([2]; SCID, large bowel content, 200 pmol/mouse, 4 h pi, 200 pmol/~0.8 MBq i.v., mean ± SD, read-out: uptake in large bowel content) was 10 ± 3.5 %ID/g, the tissue uptake at 1 h ([2]; SCID, pancreas, 200 pmol/mouse, 1 h pi, 200 pmol/~0.8 MBq i.v., mean ± SD, read-out: uptake in pancreas) was 19.8 ± 2.6 %ID/g and the tissue uptake at 4 h ([2]; SCID, pancreas, 200 pmol/mouse, 4 h pi, 200 pmol/~0.8 MBq i.v., mean ± SD, read-out: uptake in pancreas) was 8.5 ± 2 %ID/g. For the same molecule, the tissue uptake at 4 h ([2]; SCID, pancreas, 4 h pi, co-injected with excess of 40 nmol unlabeled NeoB, mean ± SD, read-out: uptake in pancreas, 4 h + block) was 0.1 %ID/g, the tissue to tissue ratio ([2]; SCID, tumor and kidney, 200 pmol/mouse, all investigated time points 1-168 h) was over 1 and the tissue to tissue ratio at 96 h ([2]; SCID, tumor and kidney, 200 pmol/mouse, at 96 h, mean ± SD, read-out: tumor-to-kidney ratio (maximum value)) was 112 ± 5. For the same molecule, the tissue to tissue ratio at 48 h ([2]; SCID, tumor and liver, 200 pmol/mouse, at 48 h, mean ± SD, read-out: tumor-to-liver ratio (maximum value)) was 54 ± 5, the tissue to tissue ratio at 168 h ([2]; SCID, tumor and pancreas, 200 pmol/mouse, at 168 h (1 week), mean ± SD, read-out: tumor-to-pancreas ratio (maximum value)) was 309 ± 148 and the excreta dose per gram or mL at 4 h ([2]; SCID, urine, 200 pmol/mouse, 4 h pi, 200 pmol/~0.8 MBq i.v., mean ± SD, read-out: uptake in urine) was 216 ± 193 %ID/g. The excreta dose per gram or mL at 1 h ([2]; urine, 200 pmol/mouse, 1 h pi, 200 pmol/~0.8 MBq i.v., GIST-882 bearing SCID mice, gamma counter, mean ± SD, read-out: uptake in urine) was 600 ± 155 %ID/g, the “stability after labeling (radiochemical purity by radio-HPLC)” value [3] was “remained stable” and the tissue uptake at 24 h ([4]; 400 pmol group) was about 11 %ID/g. For the same molecule, the tissue uptake at 24 h ([4]; 800 pmol group, p < 0.05 vs 400 pmol) was about 7 %ID/g, the tumor regression (GIST-882 tumor; 400 pmol dose, 37 MBq once a week for 3 weeks) was “complete tumor regression” and the “mice excluded due to tumor volume over the limit of 1500 mm^3” value (GIST-882 tumor; 400 pmol group) was “none”. The residual tumor (GIST-882 tumor; 400 pmol group, from day 65) was “no residual tumor volume”, the “tumor volume in comparison to control group” value (GIST-882 tumor; 400 pmol, p = 0.0001) was “significantly reduced” and the “mice excluded due to tumor volume over the limit of 1500 mm^3” value (GIST-882 tumor; 800 pmol group) was “none”. For the same molecule, the “tumor volume in comparison to control group” value (GIST-882 tumor; 800 pmol, p = 0.0066) was “significantly reduced”, the “total body weight of treated animals” value [5] was “No change” and the “off-target effect (inflammation, fibrosis, architecture alteration) on HES stained pancreatic sections” value ([5]; end of follow up) was “no off-target effect”. For the same molecule, the pancreas half-life (PC-3 bearing mice; 200 pmol) was 11 h, the “tumor half-life in prostate tumors” value (PC-3 bearing mice; 200 pmol) was 28 h and the tumor-to-pancreas ratio (PC-3 bearing mice; as early as 4 h after injection of 200 pmol) was over 1.

From PMC7958597, “In Vivo Biodistribution and Efficacy Evaluation of NeoB, A Radiotracer Targeted to GRPR, in Mice Bearing Gastrointestinal Stromal Tumor” (Cancers, 2021)
